“Also recorded” adds a separate entry of the source.
Tests used:
[1] = tested on: small clot embolic strokes in rabbits; assay: rabbit small clot embolic stroke model (RSCEM), quantal analysis of behavior; type: in vivo
From the text: The invention used a rabbit small clot embolic stroke model (RSCEM) that reproduces many facets of human AIS including a well-defined clinical endpoint. The RSCEM utilizes administration of a suspension of small blood clots to induce strokes, and behavioral deficits that can be measured quantitatively. Moreover, the RSCEM is useful to conduct studies testing the effects of single drugs or drug combinations such as a neuroprotective agent (e.g., NXY-059) plus a thrombolytic (Tenecteplase, Alteplase, Desmoteplase and the like). Since it is likely that a drug combination will be used for patient management it is important to determine whether there are any interactions (positive or negative) between the compounds when administered following embolic strokes.
Methods: Male New Zealand white rabbits were anesthetized using halothane (5% induction, 2% maintenance by facemask), the bifurcation of the right carotid artery was exposed and the external carotid was ligated just distal to the bifurcation, where a catheter was inserted into the common carotid and secured with ligatures. The incision was closed around the catheter with the distal ends left accessible outside the neck; the catheter was filled with heparinized saline and plugged with an injection cap. Rabbits were allowed to recover from anesthesia for a minimum of 3 h until they awoke and behaved normally.
For the RSCEM, microclots were prepared from blood drawn from a donor rabbit and allowed to clot at 37° C. All rabbits in the study received injections of the same sized microclots. For embolization, clot particles were rapidly injected through the carotid catheter and both the syringe and catheter were flushed with 5 ml of normal saline. […]
Quantal Dose-Response Analysis: For the RSCEM, a quantal dose-response data analysis technique was used. […] The P50 values are then calculated. […] The data were analyzed using the t-test, which included the Bonferroni correction where appropriate. […]

[2] = tested on: small clot embolic strokes in rabbits; conditions: previous studies; cited from earlier work

B1: Tenecteplase: thrombolytic agent supplied by Genentech as a lyophilized cake, the formulation used clinically (protein, UniProt P00750 36-562, looked up, variant T103N N117Q K296A H297A R298A R299A)
Tissue-type plasminogen …: SYQVICRDEKTQMIYQQHQSWLRPVLRSNRVEYCWCNSGRAQCHSVPVKSCSEPRCFNGGTCQQALYFSDFVCQCPEGFAGKCCEIDTRATCYEDQGISYRGNWSTAESGAECTNWQSSALAQKPYSGRRPDAIRLGLGNHNYCRNPDRDSKPWCYVFKAGKYSSEFCSTPACSEGNSDCYFGNGSAYRGTHSLTESGASCLPWNSMILIGKVYTAQNPSAQALGLGKHNYCRNPDGDAKPWCHVLKNRRLTWEYCDVPSCSTCGLRQYSQPQFRIKGGLFADIASHPWQAAIFAAAAASPGERFLCGGILISSCWILSAAHCFQERFPPHHLTVILGRTYRVVPGEEEQKFEVEKYIVHKEFDDDTYDNDIALLQLKSDSSRCAQESSVVRTVCLPPADLQLPDWTECELSGYGKHEALSPFYSERLKEAHVRLYPSSRCTSQHLLNRTVTDNMLCAGDTRSGGPQANLHDACQGDSGGPLVCLNDGRMTLVGIISWGLGCGQKDVPGVYTKVTNYLDWIRDNMRP
[1]; Tenecteplase 0.9 mg/kg IV bolus, 1 hour following embolization
  P50: 2.76 ± 0.37 mg
[1]; Tenecteplase 0.9 mg/kg, 1 hour following embolization
  increase of P50 over control: 130%
[1]; Tenecteplase 0.9 mg/kg, 6 hours following embolization
  P50 compared to control: did not increase the P50 compared to control; also recorded: neither Tenecteplase, nor NXY-059, significantly (p>0.05) affect P50 values
[2]
  therapeutic window: 3 h

— patent publication US20070166299A1, “TREATMENT FOR EMBOLIC STROKE” (priority 2005, published 2007)
